Article PMC3377668, “Detection of Crosslinks within and between Proteins by LC-MALDI-TOFTOF and the Software FINDX to Reduce the MSMS-Data to Acquire for Validation” (PLoS ONE, 2012)

Target: T1, Clp-protease subunit R (ClpR) from Synechococcus sp. (Synechococcus sp., UniProt Q9L4P4 1-228)
T1 construct: ClpR, Clp-protease subunit R, Synechococcus sp., UniProtKB Q9L4P4; Stood in the crosslinked ClpCP3R complex; also called R-subunit; source: part of the Synechococcus ClpCP3R complex, obtained as described previously according to [20]
T1 sequence (looked up): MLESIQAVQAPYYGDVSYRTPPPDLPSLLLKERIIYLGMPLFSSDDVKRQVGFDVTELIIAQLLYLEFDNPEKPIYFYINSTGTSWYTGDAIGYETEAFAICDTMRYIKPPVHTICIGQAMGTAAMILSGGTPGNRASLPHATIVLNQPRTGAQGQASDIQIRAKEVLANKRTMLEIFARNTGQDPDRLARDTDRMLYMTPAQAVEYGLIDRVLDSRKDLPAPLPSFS
Assay: cross-linking; Clp-protease multisubunit complex (ClpCP3R) crosslinked with H12/D12 BS3; tryptic digest separated into 192 fractions, LC-MALDI-TOF/TOF, FINDX (7 ppm, intensity parameter 0.22), MSMS validation
Conditions: both partners purified

B1: Clp-protease subunit P3 (ClpP3) from Synechococcus sp. (natural protein, UniProt Q9L4P3 1-199, looked up)
chain: MPIGVPSVPYRLPGSSFERWIDIYNRLAMERIIFLGQEVTDGLANSIVAQLLYLDSEDSSKPIYLYINSPGGSVTAGMAIYDTMQYIKSPVITICLGLAASMGAFLLCAGSKGKRLALPHSRIMIHQPLGGTGRRQASDIEIEAKEILRIKKLLNQIMADRTGQPLEKIEKDTDRDYFMSAEEAREYGLIDQVIAERPV
notes: ClpP3, Clp-protease subunit P, Synechococcus sp., UniProtKB Q9L4P3; Stood in the crosslinked ClpCP3R complex (P3 and R in a proteolytic core of two heptameric rings, ClpC in a hexameric ring); also called P3-subunit; source: part of the Synechococcus ClpCP3R complex, obtained as described previously according to [20]; not shown: His6, C-terminal, kept
B1: binds.
